Positions count from the first letter of the chain named.
B1: AM22 (antibody, V domains shown)
VH: QVQLVQSGAEVKKPGATVKVSCKISGHTLIKLSIHWVRQAPGKGLEWMGGYEGEVDEIFYAQKFQHRLTVIADTATDTVYMELGRLTSDDTAVYFCGTLGVTVTEAGLGIDDYWGQGTLVTVSS
VL: EIVLTQSPGTLSLSPGERATLSCRASQIVSRNHLAWYQQKPGQAPRLLIFGASSRATGIPVRFSGSGSGTDFTLTINGLAPEDFAVYYCLSSDSSIFTFGPGTKVDFK
B2: MPE8 (antibody, V domains shown)
VH: EVQLVESGGGLVKPGGSLRLSCAASGFTFSSYSMNWVRQAPGKGLEWVSSISASSSYSDYADSAKGRFTISRDNAKTSLFLQMNSLRAEDTAIYFCARARATGYSSITPYFDIWGQGTLVTVSS
VL: QSVVTQTPSVSGAPGQRVTISCTGSSSNIGAGYDVHWYQQLPGTAPKLLIYDNNNRPSGVPDRFSASKSGTSASLAITGLQAEDEADYYCQSYDRNLSGVFGTGTKVTVL
notes: also called MPEG

Legend:
Assay in all cases: BLI (Octet), F on anti-HIS tip, 20 nM mAb
[1] = biological target: T1, RSV F protein mutant pXCS785 (RSV A2, UniProt P03420 26-109)
T1 chain 1: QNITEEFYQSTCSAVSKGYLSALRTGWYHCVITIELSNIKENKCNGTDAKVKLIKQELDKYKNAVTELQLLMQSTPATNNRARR
T1 chain 2: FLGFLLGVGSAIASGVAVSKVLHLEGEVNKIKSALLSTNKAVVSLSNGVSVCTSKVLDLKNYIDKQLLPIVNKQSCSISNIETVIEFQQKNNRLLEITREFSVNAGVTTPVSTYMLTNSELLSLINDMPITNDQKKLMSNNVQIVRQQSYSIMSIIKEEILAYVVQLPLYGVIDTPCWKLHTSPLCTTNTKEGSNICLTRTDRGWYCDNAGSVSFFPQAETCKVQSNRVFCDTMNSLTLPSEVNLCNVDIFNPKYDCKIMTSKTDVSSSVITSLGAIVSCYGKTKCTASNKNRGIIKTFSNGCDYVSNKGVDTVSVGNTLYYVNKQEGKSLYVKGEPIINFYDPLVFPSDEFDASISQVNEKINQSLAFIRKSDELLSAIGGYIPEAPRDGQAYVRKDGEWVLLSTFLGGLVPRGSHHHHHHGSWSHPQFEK

[2] = biological target: T2, RSV F protein mutant pXCS856 (RSV A2, UniProt P03420 26-109)
T2 chain 1: T1 chain 1
T2 chain 2: T1 chain 2 with D350S

[3] = biological target: RSV F protein mutant pXCS850 (RSV A2, UniProt P03420 26-109)
[4] = biological target: RSV F protein mutant pXCS889 (RSV A2, UniProt P03420 26-109)
[5] = biological target: T3, RSV F protein mutant pXCS842 (RSV A2, UniProt P03420 26-109)
T3 chain 1: T1 chain 1 with C30S, T78C
T3 chain 2: T1 chain 2 with I12C, C52L, S54I, I160V, D350S

[6] = biological target: RSV F protein mutant pXCS848 (RSV A2, UniProt P03420 26-109)
[7] = biological target: T4, RSV F protein mutant pXCS734 (RSV A2, UniProt P03420 26-109)
T4 chain 1: T1 chain 1
T4 chain 2: T1 chain 2 with L6C, I160V, N235C

[8] = biological target: T5, RSV F protein mutant pXCS858 (RSV A2, UniProt P03420 26-109)
T5 chain 1: T1 chain 1
T5 chain 2: T1 chain 2 with S54I, D350S

Row | Binder | Response (nm shift) [1] [nm] | Response (nm shift) [2] [nm] | Response (nm shift) [3] [nm] | Response (nm shift) [4] [nm] | Response (nm shift) [5] [nm] | Response (nm shift) [6] [nm] | Response (nm shift) [7] [nm] | Response (nm shift) [8] [nm]
1 | B1 | 0.465 | 0.568 | 0.517 | 0.477 | 0.493 | 0.109 | 0.284 | 0.547
2 | B2 | 0.937 | 1.06 | 1.04 | 0.889 | 0.932 | 0.266 | 0.818 | 1.06

Source: patent US20230218738A1 (Pfizer, published 2023)
